Results reported in a protein production outcome set (Wang et al. 2014).

Test: label from the status in PepcDB records

Sequence | protein production
MINSGTLITKIEELQSTLAKMDIALGTVDEAIVWTDGTGQIQWCNTAFDHLMGKLHILILGKNLVELLPLHRNSQPLEVSHHPFTIIVATQQKFTDHYEFNQNGKWLHLEIMTSPLMNAQGAVLVIRDISDRHLQEQTLQQLNENLEKRVLERTQAVSLIN | failed
MIPDELKHYLTDDWYAVVREHKLLELPAKVTVQQISEQYLAHKKSVKSTSASKEVAINDVLDGIVEYFNVMLGSQLLYKFERTQYADVMQKHPDTPLSELYGSFHLLRLFVRLGSMLSYSALDQQSMQNLLTHVQDFLKFLVKNSSIFFSMSNFINVDPEYVRNAQ | failed
MIPEIAGLPALEWTSSAGHASYDEAEATLTLAAASGVDWTNDSLGGEPQHGATALGFRAPAAFSLSARVLVASPRTTFDAGVLTLWADSDHWAKLCFEYSPQGEAMVVSVVTNGYSDDSNGPVVTAPWVYLRVSRVGPAWAFHSSTDGRDWSLVRLFRLDTEKPVHVGFMSQAPMGDGCEARFDAIELKEEPPAELRDGS | failed
MIPFKDITLADRDTITAFTMKSDRRNCDLSFSNLCSWRFLYDTQFAVIDDFLVFKFWAGEQLAYMMPVGNGDLKAVLRKLIEDADKEKHNFCMLGVCSNMRADLEAILPERFIFTEDRAYADYIYLRSDLATLKGKKFQAKRNHINRFRNTYPDYEYTPITPDRIQECLDLEAEWCKVNNCDQQEGTGNERRALIYALHNFEALGLTGGILHVNGKIVAFTFGMPINHETFGVHVEKADTSIDGAYAMINYEFANRIPEQYIYINREEDLGIEGLRKAKLSYQPVTILEKYMACLKDHPMDMVRW | not failed
MIPLSESFESGIPAIWKTIDADGDGYNWMHLTNFTGQSGLCVSSASYIGGVGALTPDNYLITPELKLPTDALVEIIYWVCTQDLTAPSEHYAVYSSSTGNNAADFVNLLYEETLTAKRIQSPELIRGNRTQGVWYQRKVVLPNDTKYVAFRHFNSTDNFWLNLDEVSILYTPLPRRA | not failed
MIPMFTVTLEDSGTLWKSLHSSSESEMTTLPPLPMTRPKLTALARQKLPCSSRKIPRSQLIKEKDDIDHYLEVNFKGLSKEEVAAYRNSYKKNICVDMLRDGYHKSFTELFALMERWDALREAARVRSLFWLQKPLEEQPDKLDYLYHYLTRAEDAERKESFEDVHNNLYALACYFNNSEDKWVRNHFYERCFKIAQLIKIDCGKKEAEAHMHMGLLYEEDGQLLEAAEHYEAFHQLTQGRIWKDETGRSLNLLACESLLRTYRFLSDKMLENKEYKQAIKILIKASEIAKEGSDKKMEAEASYYLGLAHLAAEEYETALTVLDTYCKISTDLDDDLSLGRGYEAIAKVLQSQGEMTEAIKYLKKFVKIARNNFQSLDLVRASTMLGDIYNEKGYYNKASECFQQAFDTTVELMSMPLMDETKVHYGIAKAHQMMLTVNNYIESADLTSLNYLLSWKESRGNIEPDPVTEEFRGSTVEAVSQNSERLEELSRFPGDQKNET | failed
MIPQIPLPMLSEGKDCKIREVLAGKALKRRLTEMGFTPSSSIRLIGCERGNLLVNVNGARYALGKGMAMKIMVEPD | failed
MIPRCLINQILRLAQASPEREVCGLVGAAAGRRMRCYPVPNVAERPECRFLLDPKGQIDALRAMRERGEELFAIFHSHPTAAAIPSPADLEFAAYPEALHLIVSLGTKGVLEMRGFRIGSSSRPREVELLLAPELEHHHHHH | failed
MIPTATYRLQFRNGMTFDRAAALVPYLKNLGISHLYASPIFTATKASTHGYDVTDANEIEPSIGGREGFERLVAELKAQGLGLIIDIVPNHMASSLENAWWRDVLEYGKESRYARHFDIDWSRRLTLPFLGDTFDAVLENGEIAIKPDPATGKPAFAYYDNYYPLAPATWQGREAEILALTDKAAIADLHERQPWKLMSWRDAARSLSYRRFFEVTGLVGMRVEDKTVFDDTHRLILELVRTGAVDGLRIDHIDGLADPKAYLARLRQEVGPACYITVEKILAKGEQLPDDWPVSGTTGYEFIASLAEVLVDDEQIDNLRQAYETVKGAPVDMRAELRAAKLLMVDRNFEGEFTRLLALALSIASELQIAQEESVVRQALRELLIAFPVYRTYGTAEGLPPTDICLLHRIVERVKTLETPPQPEALTFLSRLLTGDVPASSQEEATQFRVRFQQLTGPLMAKSVEDTLFFRQNMGLALNEVGAEPVTHHFSIERFHHEMKTRQARQPDALSGTSTHDTKRGEDARARLYTLTEAPEQWSECLARWRQMNQTHVKFLNDGTAPKSADTWMLYQALTGVWPPVLQPQDETGLNALKTRFEAFVEKALREAKLRTDWVDSNEAYETAMLDYARYLLAPDNQTFLQDFYRSLQPFIRAGLVNSLTQTVIKLTAPGVPDIYQGSEALNFSLVDPDNRREPDFATLAQQLDQLTPGVFSREESWLNGQVNQYVTAALLRLRQQNHELFRFGDYIPLRAVGQRADKVIAYARVNHDDALIVVAPRLVFAECDGLLSQSHSGFWSGTDIIIPGQLNQHRYRNVLTQERLMPGERLSLASHQGGVLVLMSD | failed
MIPTISDVSTVEEWRSVAKDIVQRDGDVNWRATIVDWPGLGYSARPKMDYDTDVMEKFVVDFMNSPESPMSQSGNDDLVIIGGGHAATLALRATQRGLLKPSAIAAVAPTWAGPLPIVFGRDSSMVSRYGMLRGTLRAPGVGWMMYNMLVSNEKSIESQYKSHVYADQTNVTDAIIQSRYELTKQKGSRYVPAAFLTGLLDPVSSREEFLQLFADLEGKLPVMVMSTKGAPKRSKAEMEALRGAKGVSKFVEVEGALLPQEEYPSLVAQELYNFLQETFAKC | failed
MIQEIIAFLGRRGEFFYISVFMLLMFFIFLISWLIEPRRLINGVLFTIFFISVFAWITVMINKSTSRGLQRAYNLLLLIVFFGIILILVFAWLFLFWNAYFVWKYESHTLPNLLTLFSGFIALIFSVIFILGPGRYLPHWLSALLASIPAIAIYLGLVLYNFLVNLLLYQIYPRHYKQDYLIVLGAGLINGDQVSKLLAARINRAIQFSNRQYQKGRKRPIIIMSGGQGPDEKVPEALAMAKFAQHRGVSPDHILIEDQSKNTYQNMLFSKQLATNDFGGPNFKATFFSNNYHIFRAALLAKEVGLKANGVGAFTRLYYLPNAIIREFAGVFVMHKRRHFVIMGVIVLFFILQAILAAAGIVKFNVI | failed
MIQLRAISRGMICGLLLSQLWSCSSTPLEPTAIEVDALFDDSLFKPVTNIPSVEDIFSLPSSVAVDVKRTYDRYAISTKNPLAVHEWLASYINANQSNGHSDFRYQDNLTQTASETFEQRAGNCMSLVVMTSALADIFNIGTEFQDIAIEPVWDKQGDFYLINGHVNLRLLPAQSVHTVYVSTHAILVDFMPERALRGLAKVQINRQTLTAMFYNNMAAESLVEGDLDHAYALVKAGLKSGHFSPALNTLAVIYRHKGDEKRAEQVYRYALKFDPDDMTTLFNLAVILDNQGRLEEWAQIHKKLELARIRNPYYYYDMGEQAYDEHQYREALAWYQRAVDKADYRHEFFFGLSRTYWALGDEKRAKQNMEKALALSREAADKHRCQAKLQAMRQH | failed
MIQTKDIIELTDTYGANNYHPLPIVISKAEGVWVEDPEGNRYMDLLSAYSAVNQGHRHPKIINALIDQANRVTLTSRAFHSDQLGPWYEKVAKLTNKEMVLPMNTGAEAVETAIKTARRWAYDVKKVEANRAEIIVCEDNFHGRTMGAVSMSSNEEYKRGFGPMLPGIIVIPYGDLEALKAAITPNTAAFILEPIQGEAGINIPPAGFLKEALEVCKKENVLFVADEIQTGLGRTGKVFACDWDNVTPDMYILGKALGGGVFPISCAAANRDILGVFEPGSHGSTFGGNPLACAVSIAALEVLEEEKLTERSLQLGEKLVGQLKEIDNPMITEVRGKGLFIGIELNEPARPYCEQLKAAGLLCKETHENVIRIAPPLVISEEDLEWAFQKIKAVLS | not failed
MIQVGDRFYDQAIVQTMGARAAEAVGLSDRPELSFAVCLSDPAEFLALLLAIREAGASVLPIHPSTPRAAARRLAIDLGCHRLVTDELAVEDLGAEDPGPGGLLQTTSGTTGEPKRIARSWAEIDREIDSYVATFVAPQDMTPLIACPITHSYGLICGVLVALRRGQVPHILGTANPKYLIARLRQTRQPLLYSSPAMLHAIARLLPAGEMIHAAMTSGTLLPDQWLMTIRARTTHLFQQYGCSEAGCVAINPNLSASGDMGAPLPHLRVEAGDTDQPREIVVHVGDRAIRTADLGYTKADGTLVFVGRLDDTINVSGLNVYPKEVEDVVMAMPGVTDAVVFRRLDSLAGERVAVAFSAEHSIAPADLRDWCIKNLAAHQVPMETVRLPRLPRQANGKISRREIAALHAEGRLELLAEETAA | failed
MIRAAAKFSREAAATIRGRTISVRGNLIRYSTPLRLIHGEISVPNANHVAIQMVNYALSHARSQKSDESYAQGMLVLEQCLGNQPNDDQVSHDSKATVLLAMSDLLYESGNSSEAIERLKQVMTLTHSSLAIRVVAVEALVGLLIQSGQDDASLDVADEFLKLVKESGHENLQGVVATVKAIKGLAELVKGNIESAESLFRGLENHESCKGNIALSYGEYLHATGNFELAKEMYQKAIQGVTETKESMCSCNMNLKAVSLAATFALGQLESHIGNFGVAEKTLTDALTKTEEHYGDNHPKVGVILTAVALMYGNKAKQERSSSILIQEGLYRKALELMKAPPLDSKGIINMENQEVIALARAGYAELLLIQENRKSEGEKMKSWAESAWRNKRISLSEALTLSEPLGKVAIIDARTTRVL | failed
MIRAASDDPAGVDELVAAIAPGLAGLGLPVINRREVVLVTGPWLAGVSGVRAALAERLPQRRFVETAELGPGDAPVAVVFVVSAATALTESDCVLLDTAAEHTDAVVAVVSKIDVHRGWRDVLTSNRDRLAARASRYARVPWVGAAAAPELGEPYLDDLVAAIQKQLADPAVARRNMLRAWESRLLMVARRFDGDAQSAGRRARVDALRQQRRTVLRQGRQSKSEHTIALRAQIQHARVKLSYFARNRCSLLRVELQEHVAGLSRKDIARFAAYTRGRVQEVVAEVGEGAVAHLADVAQLLGVPVQPPVLENLPAVLPTVVAPPLTSRRLEIRLTTLLGAGFGLGIALTLSRLVAGLTPGLAASGMVAGVAIGLAVTAWVVNARALLHDRVVVDRWTGEVTASLRSVVEQLVATRVVAVETLLSTAISERDDAENARVADQVSIIDGELREHAVAAARAAALRDREMPAVRAALEAVRAELGEPGAPTTGLF | failed
MIRCLHVLYVRHVMLMSTIHHTKRTLQPYFALVRAPFLVFTAIVILLPAAAAAEAGILNVTNTLLAFGSVLAAHVAVNILNLASDYRTGIDEATDETPYSGGNDVLVSGTLSYRRALAAGVIAILASALFVVPLVSQFGGIVLLFYGVGTVLVVGYTDVFARIGLGEFACGAGLTFLPTVAVGYIQAGTFPESVLYLSVPMFLVGFNLLLLNEFPDVEADRTNGRVNIPVVLGRQTAGYIYFGLVGVLVASLLYPIATGALPATVAVAILPIALLAPIFRTVVLEGNGDLTDDELGNHILWTQTTIVALAVGMAAAAVL | failed
MIRFIGNNRRNLITALILYLLTLVPIYVFLFSNGYLNFYGPNLPLFSGKEVEHLLAASIYNPEYGFSVNDGIYFLYLLIFTSLGIYNIIILYKIFLIITFSITFLLLYTMINKAINIFKISRYKSLSLIIGVLFFLLNPLYLEYVAFNFYNLIWGVIIFSYILIKLIDIVVNDKNVTKLDILKSGIALGFSGLMDPRLYIWGSYILILTFIIVIIIKPRLILKLIKYLSLTYISSLPIIAYIYYLFVYPSLITQASTINAITVPAYRPDTYSYIATWSENSLLFNVFAFINSEWTSIVYAPPSILFYPRTQWWFFPHFGNNSLILLPPGIITYIWLASLYIFFIVAALALFDRKRTLASSLLFIPMLLIISLSAGTNVPIKEFVYLLEIDPSKLPIVGGIFATTFAIPYYAEVMALPFASYLSILGTNYLLNRINKEILKKIAVSIIIVLAVFASWQYFNGTLYPSEVTGSFPGNSISLEGYYYPLNPPPQWVHVMNLLSTSRESVRNVKN | failed
